In patent US20260098059A1 (ENDOMET BIOSCIENCES, published 2026):
Several values for one entry are separate records, joined by “and”; a condition that tells them apart may be missing. Equal values may be shown once. Bridges are numbered along the chain shown (N, C = ends). Where no end group is shown, it is not given here. [ ]: non-standard residue; d: D form. Chg = N[C@H](C(=O)O)C1CCCCC1; NMeA = CN[C@@H](C)C(=O)O

Target: T1, β-catenin (UniProt P35222 134-665, limits assumed, biotinylated in the SPR and plate assays)
T1 construct: also called beta catenin; biotinylated β-catenin
T1 sequence (looked up): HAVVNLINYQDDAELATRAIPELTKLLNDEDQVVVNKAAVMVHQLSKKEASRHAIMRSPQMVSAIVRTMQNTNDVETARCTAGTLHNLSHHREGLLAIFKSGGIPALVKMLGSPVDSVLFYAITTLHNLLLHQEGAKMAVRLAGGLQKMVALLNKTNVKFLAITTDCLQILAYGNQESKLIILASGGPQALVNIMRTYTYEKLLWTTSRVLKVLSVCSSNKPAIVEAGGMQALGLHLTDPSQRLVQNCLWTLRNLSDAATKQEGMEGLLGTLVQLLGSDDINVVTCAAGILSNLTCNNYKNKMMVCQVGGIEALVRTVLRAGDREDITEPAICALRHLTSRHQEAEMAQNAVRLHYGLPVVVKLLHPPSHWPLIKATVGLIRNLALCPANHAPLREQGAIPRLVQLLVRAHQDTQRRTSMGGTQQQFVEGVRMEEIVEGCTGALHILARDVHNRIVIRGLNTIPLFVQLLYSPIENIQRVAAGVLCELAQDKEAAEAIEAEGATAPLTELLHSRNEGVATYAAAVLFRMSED
Assay: competitive FP
From the text: Fluorescence polarization (FP) is another method used to analyze protein-ligand interactions. This methodology measures the change in fluorescence light emitted by a labelled compound free vs. conjugated to another compound in solution. Upon binding of the fluorescent molecule to a complex, polarization increases because of limited rotation of the fluorescent tracer. Competitive FP is often utilized in drug screens as it is formatted for high throughput screens in a plate format. This immunoassay is performed by introducing a non-conjugated drug to compete for binding to the labelled competitor-ligand complex, leading to a reduction in polarization. […] Exemplary methodology is described in Example 13. Data were analyzed and plotted in Microsoft Excel (Microsoft, Redmond, WA).
Varying concentrations of β-catenin inhibitor candidate (SEQ ID NO: 404) were then added in a series of serial dilutions from 10 nM to 30 uM of inhibitor in different wells of the plate. The fluorescence polarization was read by Infinite M1000 (Tecan, Baldwin Park CA) at excitation wavelength of 470 nm and measured at emission wavelength of 520 nm. […] The experiments were performed three times and data were analyzed and plotted in Microsoft Excel (Microsoft, Redmond, WA).

Binder	Kd
WAXKILDEHGQRVWG (HELM PEPTIDE1{W.[meA].[Aib].K.I.L.D.E.H.[O=C([C@@H](N[*:1])C1CCCCC1)[*:2]].Q.R.V.W.G.[am]}$PEPTIDE1,PEPTIDE1,4:R3-8:R3$$$V2.0; SMILES CC[C@H](C)[C@@H]1NC(=O)[C@@H](NC(=O)C(C)(C)NC(=O)[C@H](C)N(C)C(=O)[C@@H](N)Cc2c[nH]c3ccccc23)CCCCNC(=O)CC[C@@H](C(=O)N[C@@H](Cc2c[nH]cn2)C(=O)N[C@H](C(=O)N[C@@H](CCC(N)=O)C(=O)N[C@@H](CCCNC(=N)N)C(=O)N[C@H](C(=O)N[C@@H](Cc2c[nH]c3ccccc23)C(=O)NCC(N)=O)C(C)C)C2CCCCC2)NC(=O)[C@H](CC(=O)O)NC(=O)[C@H](CC(C)C)NC1=O) [SEQ ID NO: 417]	≤ 400 nM
AWAQKILDEHGQRVWG (HELM PEPTIDE1{[ac].[bAla].W.[meA].Q.K.I.L.D.E.H.[O=C([C@@H](N[*:1])C1CCCCC1)[*:2]].Q.R.V.W.G.[am]}$PEPTIDE1,PEPTIDE1,6:R3-10:R3$$$V2.0; SMILES CC[C@H](C)[C@@H]1NC(=O)[C@@H](NC(=O)[C@H](CCC(N)=O)NC(=O)[C@H](C)N(C)C(=O)[C@H](Cc2c[nH]c3ccccc23)NC(=O)CCNC(C)=O)CCCCNC(=O)CC[C@@H](C(=O)N[C@@H](Cc2c[nH]cn2)C(=O)N[C@H](C(=O)N[C@@H](CCC(N)=O)C(=O)N[C@@H](CCCNC(=N)N)C(=O)N[C@H](C(=O)N[C@@H](Cc2c[nH]c3ccccc23)C(=O)NCC(N)=O)C(C)C)C2CCCCC2)NC(=O)[C@H](CC(=O)O)NC(=O)[C@H](CC(C)C)NC1=O) [SEQ ID NO: 419]	≤ 400 nM
WAQXILDEHGQRVWG (HELM PEPTIDE1{W.[meA].Q.[Orn].I.L.D.E.H.[O=C([C@@H](N[*:1])C1CCCCC1)[*:2]].Q.R.V.W.G.[am]}$PEPTIDE1,PEPTIDE1,4:R3-8:R3$$$V2.0; SMILES CC[C@H](C)[C@@H]1NC(=O)[C@@H](NC(=O)[C@H](CCC(N)=O)NC(=O)[C@H](C)N(C)C(=O)[C@@H](N)Cc2c[nH]c3ccccc23)CCCNC(=O)CC[C@@H](C(=O)N[C@@H](Cc2c[nH]cn2)C(=O)N[C@H](C(=O)N[C@@H](CCC(N)=O)C(=O)N[C@@H](CCCNC(=N)N)C(=O)N[C@H](C(=O)N[C@@H](Cc2c[nH]c3ccccc23)C(=O)NCC(N)=O)C(C)C)C2CCCCC2)NC(=O)[C@H](CC(=O)O)NC(=O)[C@H](CC(C)C)NC1=O) [SEQ ID NO: 423]	> 400 nM and ≤ 1000 nM
WAQXILDEHGQRVWG (HELM PEPTIDE1{[ac].W.[meA].Q.[Orn].I.L.D.E.H.[O=C([C@@H](N[*:1])C1CCCCC1)[*:2]].Q.R.V.W.G.[am]}$PEPTIDE1,PEPTIDE1,5:R3-9:R3$$$V2.0; SMILES CC[C@H](C)[C@@H]1NC(=O)[C@@H](NC(=O)[C@H](CCC(N)=O)NC(=O)[C@H](C)N(C)C(=O)[C@H](Cc2c[nH]c3ccccc23)NC(C)=O)CCCNC(=O)CC[C@@H](C(=O)N[C@@H](Cc2c[nH]cn2)C(=O)N[C@H](C(=O)N[C@@H](CCC(N)=O)C(=O)N[C@@H](CCCNC(=N)N)C(=O)N[C@H](C(=O)N[C@@H](Cc2c[nH]c3ccccc23)C(=O)NCC(N)=O)C(C)C)C2CCCCC2)NC(=O)[C@H](CC(=O)O)NC(=O)[C@H](CC(C)C)NC1=O) [SEQ ID NO: 424]	≤ 400 nM
WAQXILDEHGQRVWG (HELM PEPTIDE1{[CCCCCCCCC(=O)[*:2]].W.[meA].Q.[Orn].I.L.D.E.H.[O=C([C@@H](N[*:1])C1CCCCC1)[*:2]].Q.R.V.W.G.[am]}$PEPTIDE1,PEPTIDE1,5:R3-9:R3$$$V2.0; SMILES CCCCCCCCC(=O)N[C@@H](Cc1c[nH]c2ccccc12)C(=O)N(C)[C@@H](C)C(=O)N[C@@H](CCC(N)=O)C(=O)N[C@H]1CCCNC(=O)CC[C@@H](C(=O)N[C@@H](Cc2c[nH]cn2)C(=O)N[C@H](C(=O)N[C@@H](CCC(N)=O)C(=O)N[C@@H](CCCNC(=N)N)C(=O)N[C@H](C(=O)N[C@@H](Cc2c[nH]c3ccccc23)C(=O)NCC(N)=O)C(C)C)C2CCCCC2)NC(=O)[C@H](CC(=O)O)NC(=O)[C@H](CC(C)C)NC(=O)[C@H]([C@@H](C)CC)NC1=O) [SEQ ID NO: 425]	≤ 400 nM
WAQEILDKHGQRVWG (HELM PEPTIDE1{[ac].W.[meA].Q.E.I.L.D.K.H.[O=C([C@@H](N[*:1])C1CCCCC1)[*:2]].Q.R.V.W.G.[am]}$PEPTIDE1,PEPTIDE1,5:R3-9:R3$$$V2.0; SMILES CC[C@H](C)[C@@H]1NC(=O)[C@@H](NC(=O)[C@H](CCC(N)=O)NC(=O)[C@H](C)N(C)C(=O)[C@H](Cc2c[nH]c3ccccc23)NC(C)=O)CCC(=O)NCCCC[C@@H](C(=O)N[C@@H](Cc2c[nH]cn2)C(=O)N[C@H](C(=O)N[C@@H](CCC(N)=O)C(=O)N[C@@H](CCCNC(=N)N)C(=O)N[C@H](C(=O)N[C@@H](Cc2c[nH]c3ccccc23)C(=O)NCC(N)=O)C(C)C)C2CCCCC2)NC(=O)[C@H](CC(=O)O)NC(=O)[C@H](CC(C)C)NC1=O) [SEQ ID NO: 426]	≤ 400 nM
W[NMeA]QEILDKH[Chg]QRVWG-NH2 (lactam 4-8; not fully specified (N-terminus); printed as H17C8C(O)NH-W-NMeA-QE*ILDK*H-Chg-QRVWG-NH2) [SEQ ID NO: 427]	≤ 400 nM
RRWPQKILDEHVRRVWR (HELM PEPTIDE1{[ac].R.R.W.P.Q.K.I.L.D.E.H.V.R.R.V.W.R.[am]}$PEPTIDE1,PEPTIDE1,7:R3-11:R3$$$V2.0; SMILES CC[C@H](C)[C@@H]1NC(=O)[C@@H](NC(=O)[C@H](CCC(N)=O)NC(=O)[C@@H]2CCCN2C(=O)[C@H](Cc2c[nH]c3ccccc23)NC(=O)[C@H](CCCNC(=N)N)NC(=O)[C@H](CCCNC(=N)N)NC(C)=O)CCCCNC(=O)CC[C@@H](C(=O)N[C@@H](Cc2c[nH]cn2)C(=O)N[C@H](C(=O)N[C@@H](CCCNC(=N)N)C(=O)N[C@@H](CCCNC(=N)N)C(=O)N[C@H](C(=O)N[C@@H](Cc2c[nH]c3ccccc23)C(=O)N[C@@H](CCCNC(=N)N)C(N)=O)C(C)C)C(C)C)NC(=O)[C@H](CC(=O)O)NC(=O)[C@H](CC(C)C)NC1=O) [SEQ ID NO: 429]	> 400 nM and ≤ 1000 nM

Other lines, results leading:

Kd	Binder
> 400 nM and ≤ 1000 nM	AQKILNEHGQRVWG (HELM PEPTIDE1{[ac].[meA].Q.K.I.L.N.E.H.[O=C([C@@H](N[*:1])C1CCCCC1)[*:2]].Q.R.V.W.G.[am]}$PEPTIDE1,PEPTIDE1,4:R3-8:R3$$$V2.0; SMILES CC[C@H](C)[C@@H]1NC(=O)[C@@H](NC(=O)[C@H](CCC(N)=O)NC(=O)[C@H](C)N(C)C(C)=O)CCCCNC(=O)CC[C@@H](C(=O)N[C@@H](Cc2c[nH]cn2)C(=O)N[C@H](C(=O)N[C@@H](CCC(N)=O)C(=O)N[C@@H](CCCNC(=N)N)C(=O)N[C@H](C(=O)N[C@@H](Cc2c[nH]c3ccccc23)C(=O)NCC(N)=O)C(C)C)C2CCCCC2)NC(=O)[C@H](CC(N)=O)NC(=O)[C@H](CC(C)C)NC1=O) [SEQ ID NO: 433]
≤ 400 nM	[NMeA]QKILNEH[Chg]QRVWG-NH2 (lactam 3-7; not fully specified (N-terminus); printed as H23C11C(O)NH-NMeA-QK*ILNE*H-Chg-QRVWG-NH2) [SEQ ID NO: 434]
≤ 400 nM	WAQKILDEHGQRVW (HELM PEPTIDE1{[ac].W.[meA].Q.K.I.L.D.E.H.[O=C([C@@H](N[*:1])C1CCCCC1)[*:2]].Q.R.V.W.[am]}$PEPTIDE1,PEPTIDE1,5:R3-9:R3$$$V2.0; SMILES CC[C@H](C)[C@@H]1NC(=O)[C@@H](NC(=O)[C@H](CCC(N)=O)NC(=O)[C@H](C)N(C)C(=O)[C@H](Cc2c[nH]c3ccccc23)NC(C)=O)CCCCNC(=O)CC[C@@H](C(=O)N[C@@H](Cc2c[nH]cn2)C(=O)N[C@H](C(=O)N[C@@H](CCC(N)=O)C(=O)N[C@@H](CCCNC(=N)N)C(=O)N[C@H](C(=O)N[C@@H](Cc2c[nH]c3ccccc23)C(N)=O)C(C)C)C2CCCCC2)NC(=O)[C@H](CC(=O)O)NC(=O)[C@H](CC(C)C)NC1=O) [SEQ ID NO: 446]
